Source: patent US20190127461A1 (ORDER MADE MEDICAL RESEARCH, published 2019)

Assays:
[1] = molecular target: T1, MCT5 (Monocarboxylate transporter 5) (human, UniProt O15374 1-487); experiment: flow cytometry on intact HCT116 cells, Alexa 488-labeled secondary antibody; negative control is cells without IMI4C4a
T1 construct: Membrane transporter on intact human cancer cells: MCF7-MCT5 (overexpressing), and MDA-MB231, HCT116 and SK-BR3 (endogenous); also called native MCT5; MCT5 isoform 1
Experimental: HCT116 cells (which are human colorectal cancer cells) were cultured to reach 90% confluency. After being washed twice with PBS(-), the cells were collected with Accutase (Life Technologies) and suspended at 4×10⁵ cells in […] of PBS(-) containing 1% FBS. To this suspension, the antibody IMI4C4a was added at a final concentration of […] and reacted on ice for 60 minutes. For use as a control, a cell suspension free from the antibody IMI4C4a was prepared.

[2] = molecular target: T2, ICD4 (region consisting of amino acids at positions 196 to 299 of MCT5) (human); experiment: ELISA, hybridoma culture supernatant on immobilized ICD4, POD-labeled anti-mouse immunoglobulin
T2 construct: Immunogen and ELISA coating antigen
T2 chain: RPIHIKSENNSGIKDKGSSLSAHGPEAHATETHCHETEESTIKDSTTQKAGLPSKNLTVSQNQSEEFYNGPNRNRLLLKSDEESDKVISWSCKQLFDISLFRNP
Experimental: Blood samples which had been collected from mice through their tail veins and diluted 1/160,000 with PBS(-), or alternatively, culture supernatants collected from wells in which hybridomas were growing were analyzed for their antibody titer. ICD4 was diluted with PBS(-) and dispensed into 96-well ELISA plates (Nunc) in an amount of 50 ng per well, and immobilized onto the plate surface by being allowed to stand at room temperature for 1 hour. Then, after the plates were washed three times with 350 μL of TBS-T (25 mM Tris, 150 mM NaCl, 0.05% (v/v) Tween 20, pH 7.4), PBS-T containing 5% skimmed milk was dispensed in a volume of 300 μL per well to conduct blocking for 1 hour at room temperature. After washing with TBS-T, the diluted blood samples or the culture supernatants were dispensed into the ICD4-immobilized ELISA plates and reacted for 1 hour at room temperature. After washing with TBS-T, a 10,000-fold dilution of peroxidase (hereinafter abbreviated as POD)-labeled anti-mouse immunoglobulin antibody (BETHYL) was dispensed in a volume of 100 μL per well and reacted for 1 hour at room temperature. […] After the reaction was stopped with 1.5 N sulfuric acid, the plates were measured for absorbance at 490 nm with a plate reader (Molecular Devices). […]

T1 sequence (O15374 whole entry, canonical isoform): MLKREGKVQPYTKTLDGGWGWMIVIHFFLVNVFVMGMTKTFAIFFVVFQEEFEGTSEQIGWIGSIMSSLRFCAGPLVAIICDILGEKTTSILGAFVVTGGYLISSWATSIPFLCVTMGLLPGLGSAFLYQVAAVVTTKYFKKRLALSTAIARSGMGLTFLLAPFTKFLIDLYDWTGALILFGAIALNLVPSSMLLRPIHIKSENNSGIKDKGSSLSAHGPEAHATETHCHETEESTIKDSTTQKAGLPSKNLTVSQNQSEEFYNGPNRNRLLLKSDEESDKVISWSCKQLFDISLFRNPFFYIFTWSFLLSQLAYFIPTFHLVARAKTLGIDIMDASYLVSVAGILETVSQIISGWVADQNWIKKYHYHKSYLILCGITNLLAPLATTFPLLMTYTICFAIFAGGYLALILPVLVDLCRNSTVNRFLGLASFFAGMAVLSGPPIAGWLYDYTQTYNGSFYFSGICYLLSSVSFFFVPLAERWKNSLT

B1: anti-MCT5 monoclonal antibody of clone No. IMI4C4a (antibody, V domains shown)
VH: EVQLQQSGAELVRPGALVKLSCKASGFNIKDYYMFWVKQRPEQGLEWIGWIDPENGNTIFDPKFQGKASITADTSSNTAYLQLSSLTSEDTAVYYCARMITTYYYAMDFWGQGTSVTVSS
VL: QLVLTQSSSASFSLGASAKLTCTLSSQHSTYTIEWYQQQPLKPPKYVMELKKDGSHSTGDGIPDRFSGSSSGADRYLSVSSIQPEDEAIYICGVGYTIKEQFVYVFGGGTK
notes: Mouse monoclonal antibody from a hybridoma, detected with anti-mouse IgG; also called antibody IMI4C4a; Mouse-Mouse hybridoma IMI4C4a
B1: binds [1]; binds [2].
